{"source": "paper PMC7614388", "about": "“Diversification in the inositol tris/tetrakisphosphate kinase (ITPK) family: crystal structure and enzymology of the outlier AtITPK4” (Biochemical Journal, 2023)", "proteins": {"B1": {"name": "AtITPK4 (Arabidopsis thaliana) (protein)", "chain": "MKGVLLDESVLFSPESEDSSPSLRESVPSLLRLLRYSMIRTGISYGLDLPENKVDLLRKTAAEYSINCLPLETSLTSVTFGDTLKAWYSDGSILYVASSRKEEILRELSPSQLVVLLDVEGDSLEDPNIIHIHSLEELPMTICCINKKAMGDGAAIVAYIMKPSRVEDFAKRGALPMYPTSCGLIFLPLMFEFPLASQLKHADIIFHKATDEILSIELNCSDSKSSVAVTFSTGMEKLKKYMEDQNACAIVDPIRNIYPVVDRLKMQHILLGLEGLGAAGRKIRGACFLKIDSYDEPDLAQNLSRAGLSLPCIVKPQVACGVADAHSMAIVFRVEDFKNLNTPVPAIIQEYVDHSSRIFKFYVLGETIFHAVKKSIPSSSSLRKSAEENGLKPILFDSLKSLPVDSANQNPVSEIDLELVTEAATWLRKKLDLTIFGFDVVIQEGTGDHVIVDLNYLPSFKEVPDNIAVPAFWEAIRNRFDQHVQEKH", "notes": "full-length; pOPINE, non-cleavable C-terminal 6xHis tag kept; Ni-NTA purified; HAD-like domain 1-150, ATP-grasp kinase domain from 151; no evidence of homo-oligomers"}}, "substrate": "Nc1ncnc2c1ncn2[C@@H]1O[C@H](COP(=O)(O)OP(=O)(O)OP(=O)(O)O)[C@@H](O)[C@H]1O", "test": "HPLC kinase assay, Michaelis-Menten fit", "format": "biochemical, Arabidopsis thaliana", "conditions": "1 mM Ins(1,4,6)P3, ATP 0-5 mM, 6 mM MgCl2, 20 mM HEPES pH 7.3, 25 °C, 3 µM enzyme"}
{"protein": "B1", "values": [{"measurement": "Km", "result": "52 ± 7", "unit": "µM"}]}
